Assay results published in PMC5750218, “Protein-inspired antibiotics active against vancomycin- and daptomycin-resistant bacteria” (Nature Communications, 2018).
Like-named read-outs stand apart in the source and are kept apart here.

What was measured:
[1] = In vivo pharmacokinetics in mice; details: mouse; for level at 5 min / level at […] / level at 0.5 h / level at 1 h / level at 2 h / level at 4 h / level at 8 h / level at 24 h: male, CD1, plasma; for level at […]: 0.250 h; for level at 0.5 h: 0.500 h; for bioavailability / AUC(0-inf) / AUC(0-t) / C0 / clearance / half-life / MRT inf / MRT last / Vd / Cmax / Tmax: plasma; for bioavailability: subcutaneous, SC 10 mg kg-1 vs IV 2 mg kg-1; for MRT inf: read-out: MRT0-inf; for MRT last: read-out: MRT0-last; for Vd: read-out: Vdss
Protocol: Performed by WuXi AppTec (Shanghai) Co., Ltd. Seven to 9-week-old male CD1 mice (SLAC Laboratory Animal Co. Ltd., Shanghai, China) weighing 25–35 g were acclimated for approximate 3 days before being used in the study. Animals are group housed during acclimation and in-life study in compliance with the National Research Council 'Guide for the Care and Use of Laboratory Animals.' The animal room environment is controlled (target conditions: temperature 18 to 26 °C, relative humidity 30–70%, 12 h artificial light and 12 h dark) with temperature and relative humidity monitored daily. Animals were deprived of food for approximately 16 h before formulation administration then allowed access to Certified Rodent Diet (Catalogue # M-01F, Shanghai SLAC Laboratory Animal Co. Ltd.) ad libitum 4 h post dosing. Water was autoclaved before being provided to the animals ad libitum. Formulations of compounds were prepared on the morning of the dosing day. The formulation for the IV group was filtered with filter of 0.22 μm before being dosed to animals. After dose formulation preparation, duplicate 50 μL aliquots were removed from each dose formulation for use in dose validation. For each compound studied, three mice were dosed intravenously (IV) administered to each animal via tail vein per facility SOPs using test article formulated in deionised water at 1 mg mL^−1 with a dose volume of 2 mg mL^−1, providing a dose of 2 mg mL^−1 (based on free base concentration). An additional three mice were dosed subcutaneously (SC) administered to each animal via subcutaneous bolus on each animals’ back per facility SOPs using test article formulated in deionised water at 2 mg mL^−1 with a dose volume of 5 mg mL^−1, providing a dose of 10 mg mL^−1. All animals were killed at the last study time point (100% CO2 was introduced into the animal box).
Plasma samples were collected as the following target times after each dose administration: IV Sampling Time points (hours post dosing): 0, 0.083, 0.25, 0.5, 1, 2, 4, 8 and 24. SC Sampling Time points (hours post dosing): 0, 0.25, 0.5, 1, 2, 4, 8 and 24. Approximately 30 μL blood was obtained via submandibular or saphenous vein for the first several time points. For the last time point, samples were collected via cardiac puncture while the mouse was under anaesthesia. All blood samples were transferred into pre-chilled plastic microcentrifuge tubes containing 2 μL of ethylenediaminetetraacetic acid dipotassium salt (K2-EDTA) (0.5 M) as anticoagulant and placed on wet ice until centrifugation. Harvested blood samples were centrifuged within 30 min of collection at 7000 rpm (8546 × g) 4 °C for about 10 min. After centrifugation, plasma was transferred into another pre-labelled and pre-chilled polypropylene microcentrifuge tubes, then quick-frozen over dry ice and stored at −70 ± 10 °C until LC/MSMS analysis.
LC-MS/MS methods for the quantitative determination of the test article in mouse plasma were developed with an internal standard. Benchtop stability of the compound in mouse plasma was determined at mid QC concentrations in triplicate at 0, 2 h at room temperature. The stability was determined using mean peak area ratio of T2/T0 sample. If the mean peak area ratio is within 80%~120%, the test article in the plasma is considered stable for 2 h at room temperature. […] A set of QC samples consists of three concentration levels (low, middle and high). The sample analysis was performed concurrently with a set of calibration standards and two sets of QC samples using the LC-MS/MS method.
Plasma concentration vs. time data from individual animals was analysed by WinNonLin non-compartmental model (Phoenix WinNonlin 6.2.1, Pharsight, Mountain View, CA). Pharmacokinetic parameter C 0, T ½, CL, Vdss, C max, T max, AUC0-last, AUC0-inf, %F, MRT0-last, MRT0-inf and graphs of plasma concentration vs. time profile were derived.

[2] = for half-life / microsomal CLint: liver microsomes; for Microsome-Predicted EH: hepatic extraction ratio
Protocol: Performed by CDCO, Monash University, Australia.
The metabolic stability assay was performed by incubating each test compound (1 μM) with human (Xenotech, Lot #1210057) and mouse (Xenotech, Lot #1110071) liver microsomes at 37 °C and 0.4 mg mL^−1 protein concentration. The metabolic reaction was initiated by the addition of a nicotinamide adenine dinucleotide phosphate (NADPH)-regenerating system (i.e. NADPH is the cofactor required for cytochrome P450-mediated metabolism) and quenched at various time points over the 60 min incubation period by the addition of acetonitrile. Control samples (containing no NADPH) were included (and quenched at 2, 30 and 60 min) to monitor for potential degradation in the absence of cofactors. Concentrations of each test compound in quenched samples were determined by ultra performance liquid chromatography mass spectrometry (UPLC-MS) (Waters/Micromass Xevo triple quadrupole mass spectrometer). […] In addition, glucuronidation was not considered in this study and may require further assessment using alternative test systems.
Test compound concentration vs. time data were fitted to an exponential decay function to determine the first-order rate constant for substrate depletion. In cases where clear deviation from first-order kinetics was evident, only the initial linear portion of the profile was utilised to determine the degradation rate constant (k). Each substrate depletion rate constant was then used to calculate: (1) a degradation half-life, where t 1/2 = ln(2) k ^−1; (2) an in vitro intrinsic clearance value, where CLint,in vitro = k [microsomal protein content (0.4 mg mL^−1)]^−1; (3) a predicted in vivo hepatic intrinsic clearance value, where CLint = CLint,in vitro × [liver mass (g)/body weight (kg)] × [microsomal protein (mg) / liver mass (g)]; and (4) a predicted in vivo hepatic extraction ratio, where E H = CLblood Q ^−1 = Clint [Q + Clint]^−1.
Scaling parameters assumed were: human liver mass 20 g liver / kg body weight, human microsomal protein 40 mg g^−1 liver mass[49], [50], human hepatic blood flow (Q) 20.7 mL min^−1 kg body weight^−1 [51], mouse liver mass 87.5 g liver / kg body weight, mouse microsomal protein 45 mg g^−1 liver mass[51], mouse hepatic blood flow (Q) 90 mL min^−1 kg body weight^−1 [51].

[3] = 2 mg/kg IV, n=3, read-out: Plasma concentration, Mean IV
[4] = 2 mg/kg IV, read-out: Plasma concentration, Mean IV
[5] = 10 mg/kg SC, n=3, read-out: Plasma concentration, Mean SC
[6] = 10 mg/kg SC, read-out: Plasma concentration, Mean SC

With `CCCCCCCCCCC(=O)N[C@@H](CCCCN)C(=O)N[C@@H](CCCCN)C(=O)N[C@@H](CCCCNC(=O)[C@H]1NC(=O)[C@H]2NC(=O)[C@H](NC(=O)[C@@H]3NC(=O)[C@H](CC(N)=O)NC(=O)[C@H](NC(=O)[C@@H](CC(C)C)NC)[C@H](O)c4ccc(c(Cl)c4)Oc4cc3cc(c4O[C@@H]3O[C@H](CO)[C@@H](O)[C@H](O)[C@H]3O[C@H]3C[C@](C)(N)[C@H](O)[C@H](C)O3)Oc3ccc(cc3Cl)[C@H]2O)c2ccc(O)c(c2)-c2c(O)cc(O)cc21)C(=O)O` [Compound 19, nC10CO-KK-K(Vancomycin)-OH] the level at 5 min [1, 3] was 9370 ng/mL, the level at […] [1, 4] was 6970 ng/mL and the level at 0.5 h [1, 4] was 6060 ng/mL. For the same compound, the level at 1 h [1, 4] was 4860 ng/mL, the level at 2 h [1, 4] was 2640 ng/mL and the level at 4 h [1, 4] was 1450 ng/mL. It also gave a level at 8 h [1, 4] of 137 ng/mL, a level at 24 h [1, 4] of 5.7 ng/mL and a level at […] [1, 5] of 2650 ng/mL. The level at 0.5 h [1, 6] was 5130 ng/mL, the level at 1 h [1, 6] was 8790 ng/mL and the level at 2 h [1, 6] was 9160 ng/mL. The level at 4 h [1, 6] was 7370 ng/mL, the level at 8 h [1, 6] was 2380 ng/mL and the level at 24 h [1, 6] was 124 ng/mL. The AUC0-inf/AUC0-last ([1]; IV 2 mg kg-1) was 100%, the Tlast ([1]; IV 2 mg kg-1) was 18.7 h and the AUC0-inf/AUC0-last ([1]; SC 10 mg kg-1) was 101%. The Tlast ([1]; SC 10 mg kg-1) was 24 h, the bioavailability [1] was 71.8% and the AUC(0-inf) ([1]; IV 2 mg kg-1) was 16900 ng·h/mL. For the same compound, the AUC(0-t) ([1]; IV 2 mg kg-1) was 16800 ng·h/mL, the C0 ([1]; IV 2 mg kg-1) was 10900 ng/mL and the clearance ([1]; IV 2 mg kg-1) was 1.98 mL/min/kg. It also gave a half-life ([1]; IV 2 mg kg-1) of 2.22 h, an MRT inf ([1]; IV 2 mg kg-1) of 2.26 h and an MRT last ([1]; IV 2 mg kg-1) of 2.2 h. The Vd ([1]; IV 2 mg kg-1) was 0.267 L/kg, the AUC(0-inf) ([1]; SC 10 mg kg-1) was 60500 ng·h/mL and the AUC(0-t) ([1]; SC 10 mg kg-1) was 59900 ng·h/mL. The Cmax ([1]; SC 10 mg kg-1) was 9970 ng/mL, the Tmax ([1]; SC 10 mg kg-1) was 1.67 h and the half-life ([1]; SC 10 mg kg-1) was 3.49 h. For the same compound, the MRT inf ([1]; SC 10 mg kg-1) was 5.59 h, the MRT last ([1]; SC 10 mg kg-1) was 5.32 h and the half-life ([2]; human) was greater than 4.17 h. For the same compound, the microsomal CLint ([2]; human) was less than 7 µL/min/mg, the “Microsome-Predicted EH” value ([2]; human) was less than 0.23 and the half-life ([2]; mouse) was greater than 4.17 h. For the same compound, the microsomal CLint ([2]; mouse) was less than 7 µL/min/mg and the “Microsome-Predicted EH” value ([2]; mouse) was less than 0.23.

`CCCCCCCCCCC(=O)N[C@@H](CCCCN)C(=O)N[C@@H](CCCCN)C(=O)N[C@@H](CCCCNC(=O)[C@H]1NC(=O)[C@H]2NC(=O)[C@H](NC(=O)[C@@H]3NC(=O)[C@H](CC(N)=O)NC(=O)[C@H](NC(=O)[C@@H](CC(C)C)NC)[C@H](O)c4ccc(c(Cl)c4)Oc4cc3cc(c4O[C@@H]3O[C@H](CO)[C@@H](O)[C@H](O)[C@H]3O[C@H]3C[C@](C)(N)[C@H](O)[C@H](C)O3)Oc3ccc(cc3Cl)[C@H]2O)c2ccc(O)c(c2)-c2c(O)cc(O)cc21)C(N)=O` [Compound 21, nC10CO-KK-K(Vancomycin)-NH2] gave a level at 5 min [1, 3] of 10000 ng/mL, a level at […] [1, 4] of 5680 ng/mL and a level at 0.5 h [1, 4] of 4330 ng/mL. For the same compound, the level at 1 h [1, 4] was 2470 ng/mL, the level at 2 h [1, 4] was 1940 ng/mL and the level at 4 h [1, 4] was 758 ng/mL. The level at 8 h [1, 4] was 49.4 ng/mL, the level at […] [1, 5] was 944 ng/mL and the level at 0.5 h [1, 6] was 1440 ng/mL. The level at 1 h [1, 6] was 2950 ng/mL, the level at 2 h [1, 6] was 3140 ng/mL and the level at 4 h [1, 6] was 2320 ng/mL. It also gave a level at 8 h [1, 6] of 1370 ng/mL, a level at 24 h [1, 6] of 45 ng/mL and an AUC0-inf/AUC0-last ([1]; IV 2 mg kg-1) of 101%. The Tlast ([1]; IV 2 mg kg-1) was 8 h, the AUC0-inf/AUC0-last ([1]; SC 10 mg kg-1) was 101% and the Tlast ([1]; SC 10 mg kg-1) was 24 h. The bioavailability [1] was 43%, the AUC(0-inf) ([1]; IV 2 mg kg-1) was 10900 ng·h/mL and the AUC(0-t) ([1]; IV 2 mg kg-1) was 10800 ng·h/mL. It also gave a C0 ([1]; IV 2 mg kg-1) of 14200 ng/mL, a clearance ([1]; IV 2 mg kg-1) of 3.13 mL/min/kg and a half-life ([1]; IV 2 mg kg-1) of 1.12 h. The MRT inf ([1]; IV 2 mg kg-1) was 1.7 h, the MRT last ([1]; IV 2 mg kg-1) was 1.6 h and the Vd ([1]; IV 2 mg kg-1) was 0.31 L/kg. The AUC(0-inf) ([1]; SC 10 mg kg-1) was 23400 ng·h/mL, the AUC(0-t) ([1]; SC 10 mg kg-1) was 23100 ng·h/mL and the Cmax ([1]; SC 10 mg kg-1) was 3560 ng/mL. It also gave a Tmax ([1]; SC 10 mg kg-1) of 2.33 h, a half-life ([1]; SC 10 mg kg-1) of 3.4 h and an MRT inf ([1]; SC 10 mg kg-1) of 6.3 h. The MRT last ([1]; SC 10 mg kg-1) was 6 h.
